Data taken from patent US20260275317A1, “CHIMERIC ENDOLYSINS WITH ACTIVITY AGAINST STREPTOCOCCI AND STAPHYLOCOCCI” (UNIVERSITEIT GENT, priority 2023, published 2026).

What was measured:
[1] = system: S. uberis, S. aureus, S. agalactiae and S. dysgalactiae; experiment: 2 h time killing assay in PBS and UHT-milk, relative in vitro scoring; assay type: cell-based; conditions: 0.25 μM
Method: (§1) Concerning the time killing assay, an overnight bacterial culture was diluted 1:10 for S. uberis, S. agalactiae-& dysgalactiae or 1:100 for S. aureus in PBS or UHT-pasteurized whole cow's milk. A volume of 10 μL thereof was combined with an equal amount of chimeric endolysin in PBS (or only PBS as negative control) in triplicate and incubated in a covered 96-well microtiter plate at 37° C. for 2 h. […] Finally, these fractions were serially diluted 1:10 in PBS. 5 μL of each fraction was spotted on TSA or BHI-agar and incubated overnight at 37° C. The following day, colony forming units (CFU) were counted and converted to CFU/mL to calculate logarithmic reductions in comparison with the negative control. The relative scores were calculated by dividing the observed logarithmic reduction for each endolysin by the maximal reduction observed for that specific condition and strain. Next, this value was divided by the number of conditions and strains tested (i.e., 8=4 bacterial strains×2 conditions (PBS/UHT-milk)). As such, the best performing candidate in each individual assay received a score of 0.125 (=(1/1)/8). […] Turbidity reduction assays were performed by combining 100 μL of overnight grown bacterial cells with an equal volume of purified enzyme at the desired concentration. Bacterial cells were washed with PBS and resuspended in a 1:1 ratio with enzyme to an OD600 of approximately 1.0. Next, the OD600 was measured using a Tecan infinite 200 PRO plate reader (Tecan, Switzerland) every 15 seconds at 37° C., shaking the 96-well plate between each measurement.
Stationary phase S. uberis 0140J or S. aureus N305 and one randomly chosen clinical isolate of S. uberis, S. aureus, S. agalactiae and S. dysgalactiae were challenged with a final concentration of 0.25 μM endolysin in a 2 h time killing assay (TKA) in both phosphate buffered saline (PBS) and ultra-high temperature pasteurized whole cow's milk (UHT-milk).

[2] = system: stationary phase S. uberis; experiment: Turbidity reduction assay (TRA), S. uberis; assay type: cell-based, Streptococcus uberis; conditions: 0.3 μM
Method: Concerning the time killing assay, an overnight bacterial culture was diluted 1:10 for S. uberis, S. agalactiae-& dysgalactiae or 1:100 for S. aureus in PBS or UHT-pasteurized whole cow's milk. A volume of 10 μL thereof was combined with an equal amount of chimeric endolysin in PBS (or only PBS as negative control) in triplicate and incubated in a covered 96-well microtiter plate at 37° C. for 2 h. The dose was low (i.e. 0.25 μM), but this was chosen to differentiate between less and better performing variants, consequently allowing a ranking. Finally, these fractions were serially diluted 1:10 in PBS. 5 μL of each fraction was spotted on TSA or BHI-agar and incubated overnight at 37° C. The following day, colony forming units (CFU) were counted and converted to CFU/mL to calculate logarithmic reductions in comparison with the negative control. The relative scores were calculated by dividing the observed logarithmic reduction for each endolysin by the maximal reduction observed for that specific condition and strain. Next, this value was divided by the number of conditions and strains tested (i.e., 8=4 bacterial strains×2 conditions (PBS/UHT-milk)). As such, the best performing candidate in each individual assay received a score of 0.125 (=(1/1)/8). […] Turbidity reduction assays were performed by combining 100 μL of overnight grown bacterial cells with an equal volume of purified enzyme at the desired concentration. Bacterial cells were washed with PBS and resuspended in a 1:1 ratio with enzyme to an OD600 of approximately 1.0. Next, the OD600 was measured using a Tecan infinite 200 PRO plate reader (Tecan, Switzerland) every 15 seconds at 37° C., shaking the 96-well plate between each measurement.
(§2) Time killing and turbidity reduction assays were performed as previously described in 1.3.1.

[3] = system: stationary phase S. uberis; experiment: Time killing assay (TKA), S. uberis; assay type: cell-based, Streptococcus uberis; conditions: 0.3 μM; for ΔLog10 (CFU/mL): 1 h
Method: as §1, with “milk.” for “milk. A volume of 10 μL thereof was combined with an equal amount of chimeric endolysin in PBS (or only PBS as negative control) in triplicate and incubated in a covered 96-well microtiter plate at 37° C. for 2 h.”
as §2
Time killing assays were performed as previously described in 1.3.1.

[4] = system: S. aureus; experiment: TRA and TKA against S. aureus mastitis isolates; assay type: cell-based, Staphylococcus aureus; conditions: S. aureus (sub)clinical isolates
Method: Concerning the time killing assay, an overnight bacterial culture was diluted 1:10 for S. uberis, S. agalactiae-& dysgalactiae or 1:100 for S. aureus in PBS or UHT-pasteurized whole cow's milk. A volume of 10 μL thereof was combined with an equal amount of chimeric endolysin in PBS (or only PBS as negative control) in triplicate and incubated in a covered 96-well microtiter plate at 37° C. for 2 h. The dose was low (i.e. 0.25 μM), but this was chosen to differentiate between less and better performing variants, consequently allowing a ranking. Finally, these fractions were serially diluted 1:10 in PBS. 5 μL of each fraction was spotted on TSA or BHI-agar and incubated overnight at 37° C. The following day, colony forming units (CFU) were counted and converted to CFU/mL to calculate logarithmic reductions in comparison with the negative control. The relative scores were calculated by dividing the observed logarithmic reduction for each endolysin by the maximal reduction observed for that specific condition and strain. Next, this value was divided by the number of conditions and strains tested (i.e., 8=4 bacterial strains×2 conditions (PBS/UHT-milk)). […] Next, the OD600 was measured using a Tecan infinite 200 PRO plate reader (Tecan, Switzerland) every 15 seconds at 37° C., shaking the 96-well plate between each measurement. […]

[5] = Clinical S. uberis 1 (Unknown ST and GCC)
[6] = Clinical S. uberis 2 (Unknown ST, GCC 5)
[7] = Clinical S. uberis 3 (Unknown ST, GCC 5)
[8] = Clinical S. uberis 4 (ST 815, GCC 143)
[9] = Clinical S. uberis 5 (ST 944, GCC 5)
[10] = Subclinical S. uberis 1 (ST 808, GCC 143)
[11] = Subclinical S. uberis 2 (Unknown ST and GCC)
[12] = Subclinical S. uberis 3 (Unknown ST, GCC 5)
[13] = Subclinical S. uberis 4 (Unknown ST and GCC)

B1: NC2: chimeric endolysin SEQ ID NO: 14; CPP + PlySs2 CHAP + PlySs2 SH3_5 + PlySs9 amidase_3 (protein)
chain: MRRRRRRRRGATTVNEALNNVRAQVGSGVSVGNGECYALASWYERMISPDATVGLGAGVGWVSGAIGDTISAKNIGSSYNWQANGWTVSTSGPFKAGQIVTLGATPGNPYGHVVIVEAVDGDRLTILEQNYGGKRYPVRNYYSAASYRQQVVHYITPPGTVAQSAPNLAGAGSRSYRETGTMTVTVDALNVRRAPNTSGEIVAVYKRGESFDYDTVIIDVNGYVWVSYIGGSGKRNYVATGATKDGKRFGNAWGTFKGSGKHLVICGHGQGRTGYDPGAVNAKLGITEAGKVRELSKLMSKYSGQQIDFITEQNVYDYRSITSIGKGYDSITELHFNAFNGSAKGTEVLIQSSLEADKEDMAILSLLSRYFQNRGIKKVDWLYNANQAASRGYTYRLVEIAFIDNEQDMAIFENKKEDIAKGLVSAITGVEVKTIVPSPPSSTVGSSGTPSKSIYLVGDSLRVLPHATHYQTGQKIANWVKGRTYKILQVKNVHQSNSKRAYLLDGIKSWVLEQDVEGTTKGHSKYHHHHHH
[1]
  ranking by cumulative relative in vitro score: overall best performing candidates
[2]; [5]
  lysis speed (ΔOD600/min)/μM: 0.03 (ΔOD600/min)/μM
[2]; Clinical S. uberis 1 (Unknown ST and GCC), 1 h
  ΔOD600: 0.32
[2]; [6]
  lysis speed (ΔOD600/min)/μM: 0.08 (ΔOD600/min)/μM
[2]; Clinical S. uberis 2 (Unknown ST, GCC 5), 1 h
  ΔOD600: 0.54
[2]; [7]
  lysis speed (ΔOD600/min)/μM: 0.22 (ΔOD600/min)/μM
[2]; Clinical S. uberis 3 (Unknown ST, GCC 5), 1 h
  ΔOD600: 0.72
[2]; [8]
  lysis speed (ΔOD600/min)/μM: 0.04 (ΔOD600/min)/μM
[2]; Clinical S. uberis 4 (ST 815, GCC 143), 1 h
  ΔOD600: 0.30
[2]; [9]
  lysis speed (ΔOD600/min)/μM: 0.12 (ΔOD600/min)/μM
[2]; Clinical S. uberis 5 (ST 944, GCC 5), 1 h
  ΔOD600: 0.63
[2]; S. uberis 0140J
  ΔOD600: 0.53±0.01
[2]; [10]
  lysis speed (ΔOD600/min)/μM: 0.18 (ΔOD600/min)/μM
[2]; Subclinical S. uberis 1 (ST 808, GCC 143), 1 h
  ΔOD600: 0.65
[2]; [11]
  lysis speed (ΔOD600/min)/μM: 0.06 (ΔOD600/min)/μM
[2]; Subclinical S. uberis 2 (Unknown ST and GCC), 1 h
  ΔOD600: 0.59
[2]; [12]
  lysis speed (ΔOD600/min)/μM: 0.18 (ΔOD600/min)/μM
[2]; Subclinical S. uberis 3 (Unknown ST, GCC 5), 1 h
  ΔOD600: 0.67
[2]; [13]
  lysis speed (ΔOD600/min)/μM: 0.15 (ΔOD600/min)/μM
[2]; Subclinical S. uberis 4 (Unknown ST and GCC), 1 h
  ΔOD600: 0.66
[3]; [5]
  ΔLog10 (CFU/mL): 0.00 Log10 (CFU/mL)
[3]; [6]
  ΔLog10 (CFU/mL): 4.16 Log10 (CFU/mL)
[3]; [7]
  ΔLog10 (CFU/mL): 1.66 Log10 (CFU/mL)
[3]; [8]
  ΔLog10 (CFU/mL): 0.01 Log10 (CFU/mL)
[3]; [9]
  ΔLog10 (CFU/mL): 0.86 Log10 (CFU/mL)
[3]; S. uberis 0140J
  Δ log10: 0.90±0.03 log10
[3]; [10]
  ΔLog10 (CFU/mL): 2.84 Log10 (CFU/mL)
[3]; [11]
  ΔLog10 (CFU/mL): 1.02 Log10 (CFU/mL)
[3]; [12]
  ΔLog10 (CFU/mL): 1.31 Log10 (CFU/mL)
[3]; [13]
  ΔLog10 (CFU/mL): 2.84 Log10 (CFU/mL)
[4]
  enzymatic (ΔOD600) and killing (Δ log10) activity, NC2 pairwise versus NC5: significantly (p<0.001) improved enzymatic (i.e., ΔOD600) and killing (i.e., Δ log10) activity

B2: NC8: chimeric endolysin SEQ ID NO: 20; CPP + PlySs2 CHAP + Ply1081 CW_7 + PlySs9 amidase_3 (protein)
chain: MRQIKWFQNRRMKWKKGATTVNEALNNVRAQVGSGVSVGNGECYALASWYERMISPDATVGLGAGVGWVSGAIGDTISAKNIGSSYNWQANGWTVSTSGPFKAGQIVTLGATPGNPYGHVVIVEAVDGDRLTILEQNYGGKRYPVRNYYSAASYRQQVVHYITPPGTVAQSAPNLAGAGIDQLVQETLAGKYGNGEQRKAALGSQYQAVMAVINGKATAPKKTVDQLAQEVIQGKHGNGEDRKKSLGPDYDAVQKRVTEILKGSPSGNIPKTPSDAPKSEVVNSSTEPKTEETGANGKATDTKITKGSGKHLVICGHGQGRTGYDPGAVNAKLGITEAGKVRELSKLMSKYSGQQIDFITEQNVYDYRSITSIGKGYDSITELHFNAFNGSAKGTEVLIQSSLEADKEDMAILSLLSRYFQNRGIKKVDWLYNANQAASRGYTYRLVEIAFIDNEQDMAIFENKKEDIAKGLVSAITGVEVKTIVPSPPSSTVGSSGTPSKSIYLVGDSLRVLPHATHYQTGQKIANWVKGRTYKILQVKNVHQSNSKRAYLLDGIKSWVLEQDVEGTTKGHSKYHHHHHH
[1]
  ranking by cumulative relative in vitro score: overall best performing candidates

B3: NC3: chimeric endolysin SEQ ID NO: 15; CPP + PlySs2 CHAP + Ply1081 CW_7 + PlySs9 amidase_3 (protein)
chain: MGFGCNGPWNEDDLRCRNHCKSIKGYKGGYCAKGGFVCKCYGATTVNEALNNVRAQVGSGVSVGNGECYALASWYERMISPDATVGLGAGVGWVSGAIGDTISAKNIGSSYNWQANGWTVSTSGPFKAGQIVTLGATPGNPYGHVVIVEAVDGDRLTILEQNYGGKRYPVRNYYSAASYRQQVVHYITPPGTVAQSAPNLAGAGIDQLVQETLAGKYGNGEQRKAALGSQYQAVMAVINGKATAPKKTVDQLAQEVIQGKHGNGEDRKKSLGPDYDAVQKRVTEILKGSPSGNIPKTPSDAPKSEVVNSSTEPKTEETGANGKATDTKITKGSGKHLVICGHGQGRTGYDPGAVNAKLGITEAGKVRELSKLMSKYSGQQIDFITEQNVYDYRSITSIGKGYDSITELHFNAFNGSAKGTEVLIQSSLEADKEDMAILSLLSRYFQNRGIKKVDWLYNANQAASRGYTYRLVEIAFIDNEQDMAIFENKKEDIAKGLVSAITGVEVKTIVPSPPSSTVGSSGTPSKSIYLVGDSLRVLPHATHYQTGQKIANWVKGRTYKILQVKNVHQSNSKRAYLLDGIKSWVLEQDVEGTTKGHSKYHHHHHH
[1]
  ranking by cumulative relative in vitro score: overall best performing candidates
